Values joined by “and” are separate entries in the source; they are usually repeats but may differ in a detail not shown here. Identical values can stand only once.
Target: T1, TP53BP1 (Homo sapiens, UniProt Q12888)
T1 construct: endogenous in cells; host or cells: HEK293 Flp-In/T-REx
Experiment: Flag IP-MS of i53/i53-DM baits: prey TP53BP1
Type: binding
Procedure: Following immunoprecipitation of Flag-tagged i53 and i-53-DM from HEK293 Flp-In/T-REx cells, peptides were identified using LC-MS/MS. Proteins were digested in solution with trypsin (Sigma, T7575-1KT) and dried to completeness. For LC-MS/MS analysis, peptides were reconstituted in 5% formic acid and loaded onto a 12-15 cm fused silica column with pulled tip packed in-house with 3.5 μm Zorbax C18 (Agilent Technologies, Calif., USA).
i53 and i53-DM precipitates were analyzed using an LTQ (Thermo Scientific) coupled to an Agilent 1100 Series HPLC (Agilent Technologies). Peptides were eluted from the column using a 90 min period cycle with a linear gradient from 0% to 40% ACN in 0.1% formic acid. Tandem MS spectra were acquired in a data-dependent mode for the top 5 (LTQ) most abundant ions using collision-induced dissociation. Acquired spectra were searched against the human Refseq_V53 database using Mascot (Matrix Science).
293T Flp-In/T-Rex cell lines were generated that expressed Flag-tagged i53 or i53-DM under the control of a tetracycline-inducible promoter as previously described. Nine IP-MS experiments were analyzed (3 biological replicate IPs each for control i53- and i53-DM expressing cell lines). The interacting proteins were identified by MASCOT to identify high-confidence interactors for i53. […]

T1 sequence (Q12888 whole entry): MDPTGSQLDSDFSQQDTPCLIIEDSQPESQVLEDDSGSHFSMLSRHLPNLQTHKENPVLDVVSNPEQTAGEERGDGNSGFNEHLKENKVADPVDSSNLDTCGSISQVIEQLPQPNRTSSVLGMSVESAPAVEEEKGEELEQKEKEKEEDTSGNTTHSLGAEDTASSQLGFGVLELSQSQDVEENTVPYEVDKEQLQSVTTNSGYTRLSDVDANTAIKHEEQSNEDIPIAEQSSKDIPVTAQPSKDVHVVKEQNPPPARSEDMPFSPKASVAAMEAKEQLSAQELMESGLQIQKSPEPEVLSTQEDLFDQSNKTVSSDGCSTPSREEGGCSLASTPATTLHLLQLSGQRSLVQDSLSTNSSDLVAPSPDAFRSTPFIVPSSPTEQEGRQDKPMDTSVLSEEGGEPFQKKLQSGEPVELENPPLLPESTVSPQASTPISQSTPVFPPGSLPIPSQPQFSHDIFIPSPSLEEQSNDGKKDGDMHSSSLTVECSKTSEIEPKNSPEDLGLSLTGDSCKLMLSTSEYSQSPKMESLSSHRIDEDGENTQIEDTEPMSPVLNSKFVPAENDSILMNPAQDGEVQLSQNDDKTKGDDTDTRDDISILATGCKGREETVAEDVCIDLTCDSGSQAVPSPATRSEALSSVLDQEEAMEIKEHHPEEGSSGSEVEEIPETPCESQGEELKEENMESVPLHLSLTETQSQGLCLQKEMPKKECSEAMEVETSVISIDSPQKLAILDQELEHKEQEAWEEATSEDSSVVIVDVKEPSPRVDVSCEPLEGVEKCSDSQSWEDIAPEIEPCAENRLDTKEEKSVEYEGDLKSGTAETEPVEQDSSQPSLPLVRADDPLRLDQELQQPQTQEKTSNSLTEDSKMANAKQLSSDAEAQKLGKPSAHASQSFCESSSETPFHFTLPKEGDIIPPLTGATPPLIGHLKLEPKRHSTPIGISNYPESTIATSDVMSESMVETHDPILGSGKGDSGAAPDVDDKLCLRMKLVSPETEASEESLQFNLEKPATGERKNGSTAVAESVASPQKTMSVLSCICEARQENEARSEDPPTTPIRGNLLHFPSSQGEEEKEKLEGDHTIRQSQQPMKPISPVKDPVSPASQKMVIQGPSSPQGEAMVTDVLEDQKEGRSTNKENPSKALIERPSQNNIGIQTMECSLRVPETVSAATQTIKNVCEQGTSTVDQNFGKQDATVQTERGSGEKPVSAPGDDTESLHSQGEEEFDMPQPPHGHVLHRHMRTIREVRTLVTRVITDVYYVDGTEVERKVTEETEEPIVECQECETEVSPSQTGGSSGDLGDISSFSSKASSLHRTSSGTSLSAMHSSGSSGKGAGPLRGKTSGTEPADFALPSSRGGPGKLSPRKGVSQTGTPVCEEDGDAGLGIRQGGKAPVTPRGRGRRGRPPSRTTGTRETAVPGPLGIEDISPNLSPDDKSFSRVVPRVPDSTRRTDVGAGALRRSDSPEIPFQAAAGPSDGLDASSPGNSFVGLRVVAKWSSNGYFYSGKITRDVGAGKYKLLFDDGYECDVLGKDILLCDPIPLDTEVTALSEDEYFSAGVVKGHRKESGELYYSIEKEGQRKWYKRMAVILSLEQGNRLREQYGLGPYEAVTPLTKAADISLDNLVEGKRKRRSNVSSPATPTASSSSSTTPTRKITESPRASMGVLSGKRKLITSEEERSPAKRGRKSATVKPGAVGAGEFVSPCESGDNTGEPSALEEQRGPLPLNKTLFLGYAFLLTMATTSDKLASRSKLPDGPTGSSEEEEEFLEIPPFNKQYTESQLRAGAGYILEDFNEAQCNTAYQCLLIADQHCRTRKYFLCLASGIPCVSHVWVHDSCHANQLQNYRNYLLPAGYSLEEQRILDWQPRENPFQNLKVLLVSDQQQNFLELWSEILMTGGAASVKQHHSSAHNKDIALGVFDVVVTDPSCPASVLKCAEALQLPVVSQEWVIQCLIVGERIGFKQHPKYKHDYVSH

Total peptides, TP53BP1 (Flag IP, 293T Flp-In/T-Rex extracts, LC-MS/MS, one column per replicate IP, listed as Flag-i53): 66 and 38 and 21
Selectivity of binding to cellular proteins (IP-MS conclusion) (three biological replicate IPs, interactors in two or more experiments): highly selective binder of 53BP1
Substance: i53: UbvG08 with C-terminal di-glycine removed and I44A mutation; genetically encoded inhibitor of 53BP1

From US10808017B2, “Ubiquitin variants and uses therof as 53BP1 inhibitors” (The Governing Council of the University of Toronto, priority 2016, dated 2020)
